{"source": "paper PMC6821326", "about": "(Nucleic Acids Research, 2019)", "binders": {"B1": {"name": "YefM antitoxin (natural protein)", "chain": "MRTISYSEARQNLSATMMKAVEDHAPILITRQNGEACVLMSLEEYNSLEETAYLLRSPANARRLMDSIDSLKSGKGTEKDIIE"}}, "biological_target": "T1, wild-type YoeB toxin, YoeB(His)6 (Escherichia coli, UniProt P69348)", "T1 sequence": "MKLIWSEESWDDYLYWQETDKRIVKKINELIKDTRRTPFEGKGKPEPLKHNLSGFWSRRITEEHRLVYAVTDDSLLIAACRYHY", "assay": "pull-down"}
{"binder": "B1", "values": [{"measurement": "binding result", "result": "binds"}]}
